In patent publication US20110311569A1:
Where two headings read alike, the source gives them in different places.

Experiments:
Assay in all cases: cell-based or functional assay
[1] = target: chimeric SF162 Env with the V1/V2 domain of JR-FL (HIV-1 isolate SF162; HIV-1 isolate JR-FL) (UniProt P19551)
[2] = target: HIV-1 JR-FL Env (parental) (HIV-1 isolate JR-FL)
[3] = target: SF162 Env with clade B consensus V3 region (identical to that of JR-FL) (HIV-1 isolate SF162; HIV-1 clade B consensus) (UniProt P19551)
[4] = target: HIV-1 SF162 Env (parental) (HIV-1 isolate SF162) (UniProt P19551)
[5] = target: SF162 Env with GKV at positions 167-169 (HIV-1 isolate SF162) (UniProt P19551)
[6] = target: SF162 Env with NI at positions 160-161 and GKV at positions 167-169 (HIV-1 isolate SF162) (UniProt P19551)
[7] = target: chimeric JR-FL Env with the V1/V2 domain of SF162 (HIV-1 isolate JR-FL; HIV-1 isolate SF162) (UniProt P19551)
[8] = target: JR-FL Env with GK at positions 167-168 (HIV-1 isolate JR-FL)
[9] = target: SF162 Env with NI at positions 160-161 (HIV-1 isolate SF162) (UniProt P19551)
[10] = target: SF162 Env with clade B consensus V3 region (identical to that of JR-FL) (HIV-1 isolate SF162; HIV-1 clade B consensus) (UniProt P19551); remark: listed apart in the source
[11] = target: HIV-1 SF162 Env (parental) (HIV-1 isolate SF162) (UniProt P19551); remark: listed apart in the source
[12] = target: JR-FL Env N160K/E168K mutant (HIV-1 isolate JR-FL)
[13] = target: SF162 Env with clade A1 consensus V3 region (HIV-1 isolate SF162; HIV-1 clade A1 consensus) (UniProt P19551)
[14] = target: SF162 Env with clade C consensus V3 region (HIV-1 isolate SF162; HIV-1 clade C consensus) (UniProt P19551)
[15] = target: SF162 Env with GKV at positions 167-169 (HIV-1 isolate SF162) (UniProt P19551); remark: listed apart in the source
[16] = target: SF162 Env with V3 substitution D25E (HIV-1 isolate SF162) (UniProt P19551)
[17] = target: SF162 Env with V3 substitution T13H (HIV-1 isolate SF162) (UniProt P19551)
[18] = target: SF162 Env with clade H consensus V3 region (HIV-1 isolate SF162; HIV-1 clade H consensus) (UniProt P19551)
[19] = target: SF162 Env with clade F consensus V3 region (HIV-1 isolate SF162; HIV-1 clade F consensus) (UniProt P19551)
[20] = target: SF162 Env with CRF02_AG consensus V3 region (HIV-1 isolate SF162; HIV-1 CRF02_AG consensus) (UniProt P19551)
[21] = target: SF162 Env with CRF01_AE consensus V3 region (HIV-1 isolate SF162; HIV-1 CRF01_AE consensus) (UniProt P19551)
[22] = target: SF162 Env with V3 substitution A22T (HIV-1 isolate SF162) (UniProt P19551)

With monoclonal antibody 2909 the ND50 (pseudovirus neutralization) [1] was > 10 µg/mL, the ND50 (pseudovirus neutralization) [2] was > 10 µg/mL and the ND50 (pseudovirus neutralization) [3] was 0.145 µg/mL. The ND50 (pseudovirus neutralization) [4] was 0.00049 µg/mL, the ND50 (pseudovirus neutralization) [5] was 0.54 µg/mL and the ND50 (pseudovirus neutralization) [6] was > 10 µg/mL. The ND50 (pseudovirus neutralization) [7] was 0.065 µg/mL, the ND50 (pseudovirus neutralization) [8] was > 10 µg/mL and the ND50 (pseudovirus neutralization) [9] was > 10 µg/mL. It also gave an ND50 (pseudovirus neutralization) [10] of 0.051 µg/mL, an ND50 ratio (fold increase in ND50 over the SF162 sequence) [10] of 879 fold and an ND50 (pseudovirus neutralization) [11] of 5.8e-05 µg/mL. The ND50 (pseudovirus neutralization) [12] was < 0.04 ng/mL, the neutralization potency relative to 2F5 [12] was > 140 fold and the neutralization potency relative to 2G12 [12] was > 500 fold. The neutralization potency relative to IgG-b12 [12] was 20 fold, the neutralization potency relative to a pool of potent V3-specific mAbs [12] was 4000 fold and the percent neutralization at 20 ng/ml (% neutralization at 20 ng/ml) [12] was > 99. It also gave an ND50 (pseudovirus neutralization) [13] of 0.0064 µg/mL, an ND50 ratio (fold increase in ND50 over the SF162 sequence) [13] of 110 fold and an ND50 (pseudovirus neutralization) [14] of 0.0048 µg/mL. The ND50 ratio (fold increase in ND50 over the SF162 sequence) [14] was 83 fold, the fold increase in 2909 concentration required for 50% neutralization, over SF162 [15] was > 1000 fold and the fold increase in ND50 over SF162 [16] was 2.3 fold. For the same substance, the fold increase in ND50 over SF162 [17] was 8.3 fold, the ND50 (pseudovirus neutralization) [18] was 0.17 µg/mL and the ND50 ratio (fold increase in ND50 over the SF162 sequence) [18] was 2930 fold. The ND50 (pseudovirus neutralization) [19] was 0.0076 µg/mL, the ND50 ratio (fold increase in ND50 over the SF162 sequence) [19] was 131 fold and the ND50 (pseudovirus neutralization) [20] was 0.037 µg/mL. For the same substance, the ND50 ratio (fold increase in ND50 over the SF162 sequence) [20] was 637 fold, the ND50 (pseudovirus neutralization) [21] was > 20 µg/mL and the ND50 ratio (fold increase in ND50 over the SF162 sequence) [21] was > 344000 fold. The fold increase in ND50 over SF162 [22] was 46 fold.
